Experimental data reported in patent publication EP4810521A1, “ANTI-EGFR AND -HER3 BISPECIFIC ANTIBODY-DRUG CONJUGATE AND USE THEREOF” (priority 2023, dated 2025).

B1: Duligo-LC1-NT3 (bispecific antibody, human IgG1, lambda, L234A L235A, V domains shown)
VH: EVQLVESGGGLVQPGGSLRLSCAASGFTLSGDWIHWVRQAPGKGLEWVGEISAAGGYTDYADSVKGRFTISADTSKNTAYLQMNSLRAEDTAVYYCARESRVSFEAAMDYWGQGTLVTVSS
VL: DIQMTQSPSSLSASVGDRVTITCRASQNIATDVAWYQQKPGKAPKLLIYSASFLYSGVPSRFSGSGSGTDFTLTISSLQPEDFATYYCQQSEPEPYTFGQGTKVEIKG
notes: also called Duoligo-LC1-NT3; duoligo-LC1-NT3
B2: Duligo-DXd (conjugate, chains of the INN, looked up)
VH: B1 VH
VL: DIQMTQSPSSLSASVGDRVTITCRASQNIATDVAWYQQKPGKAPKLLIYSASFLYSGVPSRFSGSGSGTDFTLTISSLQPEDFATYYCQQSEPEPYTFGQGTKVEIK
modifications: DXd payload

Columns and labels:
[1] = tested on: NUGC-4 tumor-bearing mouse model; assay: Anti-tumor effect in NUGC-4 tumor-bearing mouse model; assay type: in vivo, BALB/c-NUDE mice; details: NUGC-4, 10 mg/kg single dose intraperitoneal injection, day 32
From the text: In the present experiment, the BALB/c NUDE mice inoculated with NUGC-4 cells were used for determining the anti-tumor effect of the EGFR/HER3-ADCs.
The female BALB/c-NUDE mice were purchased from Beijing Vital River Laboratory Animal Technology Co., Ltd, with the grade of SPF, the quality control department is Beijing Vital River Laboratory Animal Technology Co., Ltd, and the certificate number was NO.110011230103807533. The mice were domesticated for 3 days after arrival, and then the study began.
NUGC-4 cells were purchased from NIBIOHN (CAT #: JCRB0834) and routinely subcultured in strict accordance with the instructions for subsequent in vivo experiments. The cells were collected by centrifugation, resuspended in sterile PBS and adjusted to a cell density of 20×10^6 cells/ml. A NUGC-4 tumor-bearing mouse model was established by subcutaneous inoculation of 0.2 ml of cell suspension into the right abdominal region of BALB/c-NUDE mice on day 0.
Tumor volume of each mouse was measured 13 days after tumor cell inoculation, the mice with tumor volumes about 200 mm^3 were selected and grouped on average according to their tumor volume (7 mice per group). […] Administrations were conducted on day 13 after inoculation respectively, and the tumor volume and body weight of mice were monitored twice a week. […] Measurement of tumor volume: the maximum long axis (L) and maximum wide axis (W) of the tumor were measured using a vernier caliper, and the tumor volume was calculated as follows: V=L×W^2/2. Body weight was measured using an electronic balance. Table 3. Experimental design

human EGFR = molecular target: T1, human EGFR (human, UniProt P00533 25-645, limits assumed); assay: ELISA, EGFR antigen coated on plate, anti-human IgG Fc-HRP detection
T1 construct: Coated at 0.25 ug/mL; also called EGFR antigen

human HER3 = molecular target: T2, human HER3 (human, UniProt P21860 20-643, limits assumed); assay: ELISA, HER3 antigen coated on plate, anti-human IgG Fc-HRP detection
T2 construct: Coated at 0.25 ug/mL; also called HER3 antigen; ErbB3

[2] = tested on: human breast cancer cells MCF7; assay: In vitro cell killing assay (CTG); assay type: cell-based
Protocol: After 2-3 passages of the resurrected MCF7 cells, the culture medium was poured out firstly, rinsed with 10 mL PBS once, then the cells were digested with 4mL trypsin, the culture medium was terminated before centrifuged at 400xg for 3min, the supernatant was discarded, and the culture medium was further resuspended for counting. The cell density was adjusted to 3E4/mL, 50 µL of which per well was added into a round bottom low adsorption 96-well plate. The antibody to be detected was diluted in a gradient manner, then 50 µL of which per well was added into the corresponding cells, cultured at 37 °C for 5 days, then the 96-well plate was taken out, the plate was balanced to room temperature, 100 µL of CTG detection solution was added into each well, placed at a shaker at 300 rpm for 20 min, 100 µL of which was absorbed and placed into the white bottom 96-well plate, and the luminescence value was detected by using a multifunctional microplate reader.

[3] = tested on: human breast cancer cells MDA-MB-453; assay: In vitro cell killing assay (CTG); assay type: cell-based; details: MDA-MB-453, 5 days, Example 13

Molecule | TGI [1] | Tumor volume [1] | Kd (human EGFR) | fold decrease in Kd against SIB001-DXd (human EGFR) | Kd (human HER3) | IC50 ([2]; MCF7, 5 days) | reduction in IC50 ([2]; MCF7, relative to SIB001-DXd) | killing effect [3]
Patritumab-DXd [reference compound] | 51% | 636 mm^3 | – | – | – | – | – | –
B1 | – | – | 0.0352 nM | ~2.5 fold | 0.0257 nM | – | – | –
B2 | 75% | 414 mm^3 | – | – | – | 0.049 nM | approximately 250 fold | significantly stronger killing effect than SIB001-DXd
